Entries after “also recorded” stand apart in the source; their conditions may differ.

The test system of assay [1] is human with chronic pain as a result of injury. Briefly: Use of Dihexa to treat chronic pain in a human (numeric rating scale, dolorimetric). It counts as in vivo. The conditions noted are these: oral; for pain reported by the subject: 200 miligrams/day. On the procedure: Dihexa (N-hexanoic-Tyr-Ile-(6)aminohexanoic amide), an activator of c-Met receptor, is administered orally, 200 miligrams/day for 4 weeks, to a human for the purpose of treating pain. The subject is having chronic pain for the previous 6 months, as a result of injury. Before the beginning of treatment, and weekly thereafter for 6 months, the subject is tested for pain levels using a combination of subjective (numeric rating scale) and physiological (dolorimetric) evaluation methods.

Assay [2] relates to rats subjected to chronic constriction injury of the sciatic nerve (CCI) or Sham surgery. Put plainly: Mechanical nociceptive sensitivity (von Frey filaments) in CCI and Sham rats. It is filed as in vivo, rat.
The test system is the same in assay [3]. Put plainly: Thermal nociceptive sensitivity (Hargreaves method, radiant heat withdrawal latency) in CCI and Sham rats. It is filed as in vivo, rat.
For assay [4], the system named is Mash1, DCX and Notch3 expression in spinal cord gray matter. Put plainly: Immunofluorescence quantification of immature neuron markers in spinal cord gray matter. It is filed as in vivo, rat. Conditions: vs CCI+Veh.
In assay [5] the test system is human patient diagnosed with fibromyalgia. Briefly: Use of NT4 to treat pain in a human patient diagnosed with fibromyalgia. The conditions noted are these: for pain reported by the patient: injected into the spinal canal every other day for 3 weeks. It is filed as in vivo. As for the experimental part:
NT4 is a TrkB ligand and inducer of neuronal differentiation that may be used to treat pain. NT4 (200 microliters, 1 microgram/ml) is injected every other day for 3 weeks (10 injections total) into the spinal canal of a human patient diagnosed with fibromyalgia. […] To prevent pain reoccurrence, a maintenance dose of 7,8-dihydroxy-4′-dimethylaminoflavone-8-O-glucozide (3-4 grams per day for 4-5 consecutive days) may be administered every month.

The mark [6] stands for this setting: intraperitoneal DHF treatment delayed for 3 weeks after CCI.
The mark [7] stands for this setting: intrathecal BDNF treatment delayed for 3 weeks after CCI.
[8] abbreviates: intrathecal injection every other day for first 3 weeks after CCI/Sham surgery, tested weekly, vs vehicle.

For “N-hexanoic-Tyr-Ile-(6)aminohexanoic amide [Dihexa]”, the “time until increased pain sensitivity may reoccur” value in assay [1] (200 miligrams/day for 4 weeks) came to 3 months. Also, the “pain reported by the subject” value is “decreased pain” in assay [1] (after 2 weeks of treatment) and “pain sensitivity is back to normal levels” in assay [1] (after 4 weeks of treatment).

Take `O=c1cc(-c2ccccc2)oc2c(O)c(O)ccc12` [DHF, 7,8-dihydroxyflavone, reference compound]: in assay [2] (DHF intraperitoneal treatment applied for only 3 weeks), the “duration of the decrease in pain” value was 3 months. The “long-term mechanical pain sensitivity” value in assay [2] (setting [6]) is “extended long-term decrease in mechanical and thermal pain susceptibility; also recorded: long-term decrease in pain sensitivity”. The “mechanical pain sensitivity / mechanical pain threshold” value in assay [2] (intraperitoneal injection every other day for 3 weeks immediately after CCI/Sham surgery, vs vehicle) was “reduces long-term mechanical pain susceptibility; also recorded: long-term increase in mechanical pain threshold (decrease in pain sensitivity)”. Also, the “long-term thermal pain sensitivity” value in assay [3] (setting [6]) is “extended long-term decrease in mechanical and thermal pain susceptibility; also recorded: long-term decrease in pain sensitivity”. The “expression of immature neuron markers Mash1, DCX and Notch3” value in assay [4] (intraperitoneal injection every other day for 3 weeks after CCI, spinal cords taken after 4 weeks) was “reduces the expression of Mash1, DCX and Notch3; also recorded: reducing the expression of all three markers”.

B1: NT4: neurotrophin 4, a TrkB ligand and inducer of neuronal differentiation (protein)
chain: GVSETAPASRRGELAVCDAVSGWVTDRRTAVDLRGREVEVLGEVPAAGGSPLRQYFFETRCKADNAEEGGPGAGGGGCRGVDRRHWVSECKAKQSYVRALTADAQGRVGWRWIRIDTACVCTLLSRTGRA
As to B1, the “pain reported by the patient” value in assay [5] (after 2 weeks) is given as “decreased pain”; in assay [5] (after 3-4 weeks), “no pain”; in assay [5] (after 4-5 days) it was “increased pain”. In assay [5] (injected into the spinal canal every other day, with continued treatment), the “time after which the increase in pain subsides” value lay within 7 to 10 days.

B2: BDNF: brain-derived neurotrophic factor, TrkB ligand and promoter of neuronal differentiation, injected intrathecally (protein)
chain: HSDPARRGELSVCDSISEWVTAADKKTAVDMSGGTVTVLEKVPVSKGQLKQYFYETKCNPMGYTKEGCRGIDKRHWNSQCRTTQSYVRALTMDSKKRIGWRFIRIDTSCVCTLTIKRGR
For B2, the “duration of the decrease in pain” value in assay [2] (BDNF intrathecal treatment applied for only 3 weeks) was 3 months. Also, the “long-term mechanical pain sensitivity” value in assay [2] (setting [7]) was “long-term reduction in pain and pain susceptibility; also recorded: long-term decrease in pain sensitivity”. Besides, the “mechanical nociceptive (pain) sensitivity / mechanical pain threshold” value in assay [2] (setting [8]) is “reduction in mechanical pain susceptibility (increased pain threshold); also recorded: long-term increase in mechanical pain threshold (decrease in pain sensitivity)”. In assay [3] (setting [7]), the “initial short-term increase in thermal pain sensitivity (duration)” value was 2 to 3 days and the “long-term thermal pain sensitivity” value is “reduced thermal pain susceptibility; also recorded: long-term decrease in pain sensitivity”. The “thermal nociceptive (pain) sensitivity” value in assay [3] (setting [8]) is “may increase long-term sensitivity to thermal pain; also recorded: increased long-term thermal pain sensitivity”. Besides, the “expression of immature neuron markers Mash1, DCX and Notch3” value in assay [4] (intrathecal injection every other day for 3 weeks after CCI, spinal cords taken at week 4) was “reduction in the expression of Mash1, DCX and Notch3; also recorded: reducing the expression of all three markers”.

For the origin of these results see patent US10398760B2, “Method of treating pain using agents that promote neuronal differentiation” (priority 2016, dated 2019).
